Reference: patent US6010856, “Assay systems and methods for measuring P38 map kinase, and modulators thereof” (The Scripps Research Institute)

Tests used:
[1] = target: MEF2C phosphorylated by p38 (UniProt Q06413-3 Q06413-3:1-441); experiment: EMSA; p38 phosphorylation did not reduce binding but decreased complex mobility; details: tags: in vitro translated then treated with recombinant p38; label: 32P
Source text: (§1) Members of the MEF2 family bind to conserved A/T-rich DNA sequences—CTA[A/T]_4TAG/A—found in the regulatory regions of many muscle-specific genes (Y. -T. Yu et al., Genes and Develop. 6, 1783 (1992). Binding of MEF2C to the consensus site can be detected by electrophoretic mobility-shift analysis (EMSA) (J. F. Martin et al., Proc. Natl. Acad. Sci. USA, 90, 5282 (1993); J. C. McDermott et al., Mol. Cell. Biol. 13, 2564 (1994); D. Leifer et al., Proc. Natl. Acad. Sci. USA 90, 11546 (1993)). To test whether the phosphorylation of MEF2C alters MEF2C binding to its consensus DNA binding site the mobility of the MEF2C-DNA probe complex formed by MEF2C before and after its treatment with wtp38 was compared (FIG. 3).
(§2) Binding of MEF2C to oligonucleotides containing the MEF2 consensus site determined by electrophoretic mobility-shift assay (EMSA). The oligonucleotide probe was double-stranded ^32P-labeled oligonucleotide containing the MEF2 consensus binding site (Oligonucleotides sequence, MEF2C: GATCGCT CTAAAAATAACCCTGTCG (SEQ ID NO: 1); MEF2Cmut: […] (SEQ ID NO: 2)) and the positions of free probe (F) and of bound probe (B_1 and B_2) are indicated by arrows. […]

[2] = target: MEF2C (UniProt Q06413-3 Q06413-3:1-441); experiment: EMSA; complexes B1 and B2; details: tags: in vitro translated from MEF2C cDNA; label: 32P
Sequence of MEF2C (Q06413 other isoform, or with tags, fused parts or gaps): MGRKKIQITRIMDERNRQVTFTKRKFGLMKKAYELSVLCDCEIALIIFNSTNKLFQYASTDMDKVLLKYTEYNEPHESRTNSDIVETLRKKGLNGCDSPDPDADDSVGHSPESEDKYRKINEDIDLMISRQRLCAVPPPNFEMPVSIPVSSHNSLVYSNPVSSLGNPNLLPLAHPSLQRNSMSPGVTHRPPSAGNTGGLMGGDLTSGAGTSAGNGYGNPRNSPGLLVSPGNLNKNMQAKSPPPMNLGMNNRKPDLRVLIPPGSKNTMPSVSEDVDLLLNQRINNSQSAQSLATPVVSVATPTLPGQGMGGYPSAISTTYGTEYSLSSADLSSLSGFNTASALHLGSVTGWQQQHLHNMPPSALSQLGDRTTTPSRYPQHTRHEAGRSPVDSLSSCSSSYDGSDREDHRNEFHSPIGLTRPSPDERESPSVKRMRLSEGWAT
Source text: as §1, §2

Sequence of MEF2C phosphorylated by p38 (Q06413 other isoform, or with tags, fused parts or gaps): as above

B1: MEF2C consensus site probe (dsDNA)
DNA 1: GATCGCTCTAAAAATAACCCTGTCG
DNA 2: CGACAGGGTTATTTTTAGAGCGATC
B1: binds [1]; binds [2].
